This is an account of results in article doi:10.1101/2021.04.23.441074 (bioRxiv, 2021).

This assay concerns the target MSH2-MSH3 (purified heterodimer) (human, UniProt P43246 1-934; P20585 1-1137). The experiment in a line: native gel or EMSA. On the technique in general: In EMSA bound probe runs differently from free probe, usually more slowly.

Sequence of MSH2-MSH3 (purified heterodimer) (P43246 whole entry, chain 1 of 2): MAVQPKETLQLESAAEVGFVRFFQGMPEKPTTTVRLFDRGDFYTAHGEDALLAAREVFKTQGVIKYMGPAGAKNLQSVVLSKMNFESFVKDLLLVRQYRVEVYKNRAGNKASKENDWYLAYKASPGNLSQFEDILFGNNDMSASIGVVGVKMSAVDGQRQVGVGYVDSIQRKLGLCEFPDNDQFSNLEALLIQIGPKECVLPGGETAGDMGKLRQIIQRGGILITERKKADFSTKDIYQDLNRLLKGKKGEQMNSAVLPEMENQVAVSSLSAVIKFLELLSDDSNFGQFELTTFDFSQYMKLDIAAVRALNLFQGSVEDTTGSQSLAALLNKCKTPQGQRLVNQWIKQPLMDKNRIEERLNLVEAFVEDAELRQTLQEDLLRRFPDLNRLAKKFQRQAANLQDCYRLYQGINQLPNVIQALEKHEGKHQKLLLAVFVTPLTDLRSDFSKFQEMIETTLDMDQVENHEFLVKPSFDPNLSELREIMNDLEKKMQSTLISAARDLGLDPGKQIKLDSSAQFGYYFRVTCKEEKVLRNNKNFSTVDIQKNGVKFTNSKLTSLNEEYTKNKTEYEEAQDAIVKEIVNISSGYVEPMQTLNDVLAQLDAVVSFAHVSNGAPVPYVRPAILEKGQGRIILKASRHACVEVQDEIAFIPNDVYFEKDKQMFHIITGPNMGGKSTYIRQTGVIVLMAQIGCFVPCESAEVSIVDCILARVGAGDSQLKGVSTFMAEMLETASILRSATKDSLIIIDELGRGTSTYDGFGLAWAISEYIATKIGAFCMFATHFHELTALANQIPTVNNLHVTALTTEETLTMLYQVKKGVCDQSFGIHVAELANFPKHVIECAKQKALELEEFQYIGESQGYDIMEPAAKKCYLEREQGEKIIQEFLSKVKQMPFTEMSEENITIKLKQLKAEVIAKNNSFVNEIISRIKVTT
Sequence of MSH2-MSH3 (purified heterodimer) (P20585 whole entry, chain 2 of 2): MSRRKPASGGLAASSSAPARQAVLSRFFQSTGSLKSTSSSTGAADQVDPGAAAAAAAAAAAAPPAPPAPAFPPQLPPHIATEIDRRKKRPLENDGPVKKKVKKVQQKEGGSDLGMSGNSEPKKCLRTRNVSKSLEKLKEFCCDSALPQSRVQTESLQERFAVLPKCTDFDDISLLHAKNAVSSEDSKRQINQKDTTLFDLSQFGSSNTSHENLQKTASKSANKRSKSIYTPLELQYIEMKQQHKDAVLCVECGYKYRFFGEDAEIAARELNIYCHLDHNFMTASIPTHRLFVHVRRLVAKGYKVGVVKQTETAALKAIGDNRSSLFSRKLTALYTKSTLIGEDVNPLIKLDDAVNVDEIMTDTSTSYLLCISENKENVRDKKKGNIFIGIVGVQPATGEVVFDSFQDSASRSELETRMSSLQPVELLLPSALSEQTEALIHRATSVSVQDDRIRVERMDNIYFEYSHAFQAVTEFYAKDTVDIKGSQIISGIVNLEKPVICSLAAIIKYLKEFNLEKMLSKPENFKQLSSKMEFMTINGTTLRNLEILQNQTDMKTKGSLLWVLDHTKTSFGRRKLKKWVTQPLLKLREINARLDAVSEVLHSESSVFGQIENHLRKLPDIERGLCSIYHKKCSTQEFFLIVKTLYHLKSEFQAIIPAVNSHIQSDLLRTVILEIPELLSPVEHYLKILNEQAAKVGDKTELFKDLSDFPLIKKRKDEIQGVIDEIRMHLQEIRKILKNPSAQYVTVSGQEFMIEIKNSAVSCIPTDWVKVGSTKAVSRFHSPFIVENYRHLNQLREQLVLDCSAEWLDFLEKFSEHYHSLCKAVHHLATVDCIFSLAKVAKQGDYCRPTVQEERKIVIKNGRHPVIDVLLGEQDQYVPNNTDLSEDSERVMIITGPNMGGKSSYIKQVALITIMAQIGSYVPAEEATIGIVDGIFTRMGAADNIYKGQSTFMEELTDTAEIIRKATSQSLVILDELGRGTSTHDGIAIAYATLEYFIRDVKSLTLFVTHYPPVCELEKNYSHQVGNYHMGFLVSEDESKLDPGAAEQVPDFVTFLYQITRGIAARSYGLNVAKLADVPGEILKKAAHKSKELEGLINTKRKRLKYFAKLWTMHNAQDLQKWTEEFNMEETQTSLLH

B1: SMARCAD1 (purified) (enzyme, human, UniProt Q9H4L7 1-1026, looked up)
chain: MNLFNLDRFRFEKRNKIEEAPEATPQPSQPGPSSPISLSAEEENAEGEVSRANTPDSDITEKTEDSSVPETPDNERKASISYFKNQRGIQYIDLSSDSEDVVSPNCSNTVQEKTFNKDTVIIVSEPSEDEESQGLPTMARRNDDISELEDLSELEDLKDAKLQTLKELFPQRSDNDLLKLIESTSTMDGAIAAALLMFGDAGGGPRKRKLSSSSEPYEEDEFNDDQSIKKTRLDHGEESNESAESSSNWEKQESIVLKLQKEFPNFDKQELREVLKEHEWMYTEALESLKVFAEDQDMQYVSQSEVPNGKEVSSRSQNYPKNATKTKLKQKFSMKAQNGFNKKRKKNVFNPKRVVEDSEYDSGSDVGSSLDEDYSSGEEVMEDGYKGKILHFLQDASIGELTLIPQCSQKKAQKITELRPFNSWEALFTKMSKTNGLSEDLIWHCKTLIQERDVVIRLMNKCEDISNKLTKQVTMLTGNGGGWNIEQPSILNQSLSLKPYQKVGLNWLALVHKHGLNGILADEMGLGKTIQAIAFLAYLYQEGNNGPHLIVVPASTIDNWLREVNLWCPTLKVLCYYGSQEERKQIRFNIHSRYEDYNVIVTTYNCAISSSDDRSLFRRLKLNYAIFDEGHMLKNMGSIRYQHLMTINANNRLLLTGTPVQNNLLELMSLLNFVMPHMFSSSTSEIRRMFSSKTKSADEQSIYEKERIAHAKQIIKPFILRRVKEEVLKQLPPKKDRIELCAMSEKQEQLYLGLFNRLKKSINNLEKNTEMCNVMMQLRKMANHPLLHRQYYTAEKLKEMSQLMLKEPTHCEANPDLIFEDMEVMTDFELHVLCKQYRHINNFQLDMDLILDSGKFRVLGCILSELKQKGDRVVLFSQFTMMLDILEVLLKHHQHRYLRLDGKTQISERIHLIDEFNTDMDIFVFLLSTKAGGLGINLTSANVVILHDIDCNPYNDKQAEDRCHRVGQTKEVLVIKLISQGTIEESMLKINQQKLKLEQDMTTVDEGDEGSMPADIATLLKTSMGL
Consider B1, for which the binding result is “binds”.
